Assay results published in the DeepSol protein solubility set.

test: soluble on expression in E. coli; label from the status in PepcDB or PDB records

| Sequence | soluble on expression in E. coli |
| --- | --- |
| MKPSQWTLRWVTLCGCGMLAASAAAVELPGTVQPSQLDERFKPRSEPQAKPEAPLVVPKQVAPQGSEQIRFKLREIRIEGNTRYDKAVLESYYQHMLGEQVSLAELVDLANRLTAKYRQDGFLLTQVVVPEQSIEGGKVRLQVIEGYLEHVQIKGTVDGPRVRVEELLAPLTEKRPLDADTLERGLLLVGDLPGVNVQSVLSPGQALGSSNLDVALQQQRYEGFVSLDNRGSHYTDPTTLAFGATEFSRLGFYEQIDVLGAISPFSDATRYIQLRGTLPLGGMFAGDTLQIMGSYSKVNPDIPDSVFPFDSVSKSTEGSISYNHPFIRSRSQNLSGGLALQWKDTETRLRDFASDASNPGRDHVRVFQQRLTYDWVDRWMGINLAEVRNNIGLDMWGATKKDDERRSREVADGRFVYLNGNIGRLQGLGGPWSVYGELQWQYSFDPLLPSERFGVGGSGIGRGFAPGNITGDRGFALKLEPRYGQAVGYSWLRSYQAYAFYDWGKTYNLDVDDDEQQKLGSIGAGVRFNLTDQLSFNPEIARQVIGEPADQRDGKRETRVLFNVVARF | not soluble |
| MKPVKAKCEVCEHMFRVQMLTARLSNRVDKHYFICPSCKTEFISYYSNREMRQLQKEISNLYKGFRTCYTKEQAKVIQAKIDKKDLEFKWLRDILRTEIENNLPN | not soluble |
| MKPVTLYDVAEYAGVSYQTVSRVVNQASHVSAKTREKVEAAMAELNYIPNRVAQQLAGKQSLLIGVATSSLALHAPSQIVAAIKSRADQLGASVVVSMVERSGVEACKAAVHNLLAQRVSGLIINYPLDDQDAIAVEAACTNVPALFLDVSDQTPINSIIFSHEDGTRLGVEHLVALGHQQIALLAGPLSSVSARLRLAGWHKYLTRNQIQPIAEREGDWSAMSGFQQTMQMLNEGIVPTAMLVANDQMALGAMRAITESGLRVGADISVVGYDDTEDSSCYIPPLTTIKQDFRLLGQTSVDRLLQLSQGQAVKGNQLLPVSLVKRKTTLAPNTQTASPRALADSLMQLARQVSRLESGQ | soluble |
| MKPWLITPERLTSEQIGLLDHFFDRGLERLHLRLPSAGEEDYSQVIEAVAACYRRRIVVHDHPRLVGRYGLCGLHLPERVWKGMTDRPQLPDGCTVSASCHAIEDIESFPFRLDYCFLSPVFDSLCKVGYAGRFSPDS | not soluble |
| MKPYDLSEAVAVVTGGSSGIGLATVELLLEAGAAVAFCARDGERLRAAESALRQRFPGARLFASVCDVLDALQVRAFAEACERTLGCASILVNNAGQGRVSTFAETTDEAWSEELQLKFFSVIHPVRAFLPQLESRADAAIVCVNSLLASQPEPHMVATSAARAGVKNLVRSMAFEFAPKGVRVNGILIGLVESGQWRRRFEAREERELDWAQWTAQLARNKQIPLGRLGKPIEAARAILFLASPLSAYTTGSHIDVSGGLSRHA | soluble |
| MKQADQTYRGQFKDDLYDGAGQLELADGSRYQGLFAKGKPNGAGVRSDASGNQFSGHFVNGQLQGAGTYDSVDGEQYIGEFKDNRLEGRGRYENADGDVWIGEFKDGSLIGEGELLGSDGSHYKGEFADWRLSGQGSLQLADGSKYIGGFLNDAYHGHGRLILPSGKVESGTWANGVRVRDQNGKLLPDPLDLALLNQGRLLDEALVRVPRSAPPIQLYSLVVAGDGQQSVFLREADYVSRMLKVRFGARGQVTLVNHRDHMATRPMATRENLSRAAATLAERSGPEDLVFIYLTSHGSQDHQLVLDQPRLQLADLAADELATALAPLKDRDKVIVISACYSGGYIAPLKDERTLIMTAARADRVSFGCSEEADFTYFGDALFAEALNQTDDLKQAFELARASVAEREQREGFEASEPQLWAPPAVLEHWHQLRQQQAEEALRNATQANVSKQAKMPGTHLEHHHHHH | soluble |
| MKQDGEEGTEEDTEEKCTICLSILEEGEDVRRLPCMHLFHQVCVDQWLITNKKCPICRVDIEAQLPSES | soluble |
| MKQKEYMEYRPLGEEIERIRKGKNIPLRVFDENGVSSRSYQRFVQGNSELRISDLAIIVEILSISPMEMTEKLTPMSKTVLAKEQFNQAIFSKNFQESSRIVADYRAYYEKSSFALGKQEVMYSMLALEYLFNPQTVVTKEEIIALENQILERLINADVYTIFNLKFLALQKNVGLQPFPTSLLFRVLQSVNEREIIDIRSLEIIEQVIIDFLFAAIVSQNVPHILHVLSMFKEYEVGENNWRMILWKKIAEKIEMILTNEEIFADWSIFKEQILLSITLFLPKAKQEFFAGQLEKIEDSLKEIKEN | not soluble |
